Eight molecules from patent US20250057970A1, “TROP2 TARGETING ANTIBODY-DRUG CONJUGATE, AND PREPARATION METHOD AND USE THEREFOR” (priority 2020, published 2025) can be followed below.

This experiment deals with T1, Tumor-associated calcium signal transducer 2 (UniProt P09758 27-323, limits assumed).
T1 sequence (looked up): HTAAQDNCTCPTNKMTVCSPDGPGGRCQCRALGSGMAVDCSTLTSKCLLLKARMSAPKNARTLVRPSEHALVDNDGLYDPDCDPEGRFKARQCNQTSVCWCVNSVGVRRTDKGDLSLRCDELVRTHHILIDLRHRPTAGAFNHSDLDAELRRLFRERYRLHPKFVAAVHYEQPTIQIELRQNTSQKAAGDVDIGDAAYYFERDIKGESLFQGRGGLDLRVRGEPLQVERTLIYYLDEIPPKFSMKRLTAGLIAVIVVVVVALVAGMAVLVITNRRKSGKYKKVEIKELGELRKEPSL
The experiment can be described thus: cell-based or functional assay.

B1: FDA018-LS13 (antibody, human IgG1, kappa, V domains shown)
VH: QVQLQQSGSELKKPGASVKVSCKASGYTFTNYGMNWVKQAPGQGLKWMGWINTYTGEPTYTDDFKGRFAFSLDTSVSTAYLQISSLKADDTAVYFCARGGFGSSYWYFDVWGQGSLVTVSS
VL: DIQLTQSPSSLSASVGDRVSITCKASQDVSIAVAWYQQKPGKAPKLLIYSASYRYTGVPDRFSGSGSGTDFTLTISSLQPEDFAVYYCQQHYITPLTFGAGTKVEIKR
modifications: linker-drug LS13 (SN-38 payload) coupled to cysteine sulfhydryl groups after reduction of the interchain disulfide bonds; DAR 3.97 for the whole antibody; sites not stated
In the case of B1, the “IC50 (nM), in vitro killing activity, BXPC3 Cell” value (“IC50 (nM) … BXPC3 Cell” below) was determined as 61.3 nM and the “IC50 (nM), in vitro killing activity, MDA-MB-468 Cell” value (“IC50 (nM) … MDA-MB-468 Cell” for short) stood at 67.4 nM.

B2: FDA018-LE15 (antibody, human IgG1, kappa, V domains shown)
VH: QVQLQQSGSELKKPGASVKVSCKASGYTFTNYGMNWVKQAPGQGLKWMGWINTYTGEPTYTDDFKGRFAFSLDTSVSTAYLQISSLKADDTAVYFCARGGFGSSYWYFDVWGQGSLVTVSS
VL: DIQLTQSPSSLSASVGDRVSITCKASQDVSIAVAWYQQKPGKAPKLLIYSASYRYTGVPDRFSGSGSGTDFTLTISSLQPEDFAVYYCQQHYITPLTFGAGTKVEIKR
modifications: linker-drug LE15 coupled to cysteine sulfhydryl groups after reduction of the interchain disulfide bonds; DAR 4.12 for the whole antibody; sites not stated
In the case of B2, the “IC50 (nM) … BXPC3 Cell” value was 0.96 nM; the “IC50 (nM) … MDA-MB-468 Cell” value was 0.93 nM; the “IC50 (nM), in vitro killing activity, NCI-N87 Cell” value (from here on “IC50 (nM) … NCI-N87 Cell”) worked out at 0.98 nM.

B3: FDA018-LE19 (antibody, human IgG1, kappa, V domains shown)
VH: QVQLQQSGSELKKPGASVKVSCKASGYTFTNYGMNWVKQAPGQGLKWMGWINTYTGEPTYTDDFKGRFAFSLDTSVSTAYLQISSLKADDTAVYFCARGGFGSSYWYFDVWGQGSLVTVSS
VL: DIQLTQSPSSLSASVGDRVSITCKASQDVSIAVAWYQQKPGKAPKLLIYSASYRYTGVPDRFSGSGSGTDFTLTISSLQPEDFAVYYCQQHYITPLTFGAGTKVEIKR
modifications: linker-drug LE19 coupled to cysteine sulfhydryl groups after reduction of the interchain disulfide bonds; DAR 4.13 for the whole antibody; sites not stated
On to B3, for which the “IC50 (nM) … MDA-MB-468 Cell” value was 1.03 nM.

B4: FDA018-LE17 (antibody, human IgG1, kappa, V domains shown)
VH: QVQLQQSGSELKKPGASVKVSCKASGYTFTNYGMNWVKQAPGQGLKWMGWINTYTGEPTYTDDFKGRFAFSLDTSVSTAYLQISSLKADDTAVYFCARGGFGSSYWYFDVWGQGSLVTVSS
VL: DIQLTQSPSSLSASVGDRVSITCKASQDVSIAVAWYQQKPGKAPKLLIYSASYRYTGVPDRFSGSGSGTDFTLTISSLQPEDFAVYYCQQHYITPLTFGAGTKVEIKR
modifications: linker-drug LE17 coupled to cysteine sulfhydryl groups after reduction of the interchain disulfide bonds; DAR 3.98 for the whole antibody; sites not stated
B4: the “IC50 (nM) … BXPC3 Cell” value came out at 0.62 nM; the “IC50 (nM) … MDA-MB-468 Cell” value is 0.82 nM; the “IC50 (nM) … NCI-N87 Cell” value was 1.12 nM.

B5: FDA018-LE21 (antibody, human IgG1, kappa, V domains shown)
VH: QVQLQQSGSELKKPGASVKVSCKASGYTFTNYGMNWVKQAPGQGLKWMGWINTYTGEPTYTDDFKGRFAFSLDTSVSTAYLQISSLKADDTAVYFCARGGFGSSYWYFDVWGQGSLVTVSS
VL: DIQLTQSPSSLSASVGDRVSITCKASQDVSIAVAWYQQKPGKAPKLLIYSASYRYTGVPDRFSGSGSGTDFTLTISSLQPEDFAVYYCQQHYITPLTFGAGTKVEIKR
modifications: linker-drug LE21 coupled to cysteine sulfhydryl groups after reduction of the interchain disulfide bonds; DAR 4.05 for the whole antibody; sites not stated
B5: the “IC50 (nM) … BXPC3 Cell” value turned out to be 1.23 nM and the “IC50 (nM) … NCI-N87 Cell” value was 1.23 nM.

B6: FDA018-LE22 (antibody, human IgG1, kappa, V domains shown)
VH: QVQLQQSGSELKKPGASVKVSCKASGYTFTNYGMNWVKQAPGQGLKWMGWINTYTGEPTYTDDFKGRFAFSLDTSVSTAYLQISSLKADDTAVYFCARGGFGSSYWYFDVWGQGSLVTVSS
VL: DIQLTQSPSSLSASVGDRVSITCKASQDVSIAVAWYQQKPGKAPKLLIYSASYRYTGVPDRFSGSGSGTDFTLTISSLQPEDFAVYYCQQHYITPLTFGAGTKVEIKR
modifications: linker-drug LE22 coupled to cysteine sulfhydryl groups after reduction of the interchain disulfide bonds; DAR 4.00 for the whole antibody; sites not stated
Take B6: the “IC50 (nM) … BXPC3 Cell” value came out at 1.69 nM and the “IC50 (nM) … NCI-N87 Cell” value is 3.25 nM.

B7: FDA018-LE20 (antibody, human IgG1, kappa, V domains shown)
VH: QVQLQQSGSELKKPGASVKVSCKASGYTFTNYGMNWVKQAPGQGLKWMGWINTYTGEPTYTDDFKGRFAFSLDTSVSTAYLQISSLKADDTAVYFCARGGFGSSYWYFDVWGQGSLVTVSS
VL: DIQLTQSPSSLSASVGDRVSITCKASQDVSIAVAWYQQKPGKAPKLLIYSASYRYTGVPDRFSGSGSGTDFTLTISSLQPEDFAVYYCQQHYITPLTFGAGTKVEIKR
modifications: linker-drug LE20 coupled to cysteine sulfhydryl groups after reduction of the interchain disulfide bonds; DAR 3.88 for the whole antibody; sites not stated
Take B7: the “IC50 (nM) … NCI-N87 Cell” value came out at 1.15 nM.

B8: FDA018-GGFG-Dxd (antibody, human IgG1, kappa, V domains shown)
VH: QVQLQQSGSELKKPGASVKVSCKASGYTFTNYGMNWVKQAPGQGLKWMGWINTYTGEPTYTDDFKGRFAFSLDTSVSTAYLQISSLKADDTAVYFCARGGFGSSYWYFDVWGQGSLVTVSS
VL: DIQLTQSPSSLSASVGDRVSITCKASQDVSIAVAWYQQKPGKAPKLLIYSASYRYTGVPDRFSGSGSGTDFTLTISSLQPEDFAVYYCQQHYITPLTFGAGTKVEIKR
modifications: linker-drug GGFG-Dxd coupled to cysteine sulfhydryl groups after reduction of the interchain disulfide bonds; DAR 4.03 for the whole antibody; sites not stated
As to B8, the “IC50 (nM) … BXPC3 Cell” value stood at 0.61 nM; the “IC50 (nM) … MDA-MB-468 Cell” value was 1.2 nM; the “IC50 (nM) … NCI-N87 Cell” value was 1.1 nM.
